Test results from patent publication US20150110744A1 (INTER K, published 2015).

What was measured:
Assay in all cases: cell-based or functional assay
Akt2 (PKB beta) = Akt2 (PKB beta) (human (printed as '(h)'), UniProt P31751 1-481, limits assumed)
c-Src (h) = c-Src (h) (human (printed as '(h)'), UniProt P12931 1-536, limits assumed)
Akt3 (PKB gamma) = Akt3 (PKB gamma) (human (printed as '(h)'), UniProt Q9Y243 1-479, limits assumed)
Chain of Akt3 (PKB gamma) (human (printed as '(h)'), UniProt Q9Y243 1-479, limits assumed) (Q9Y243 whole entry): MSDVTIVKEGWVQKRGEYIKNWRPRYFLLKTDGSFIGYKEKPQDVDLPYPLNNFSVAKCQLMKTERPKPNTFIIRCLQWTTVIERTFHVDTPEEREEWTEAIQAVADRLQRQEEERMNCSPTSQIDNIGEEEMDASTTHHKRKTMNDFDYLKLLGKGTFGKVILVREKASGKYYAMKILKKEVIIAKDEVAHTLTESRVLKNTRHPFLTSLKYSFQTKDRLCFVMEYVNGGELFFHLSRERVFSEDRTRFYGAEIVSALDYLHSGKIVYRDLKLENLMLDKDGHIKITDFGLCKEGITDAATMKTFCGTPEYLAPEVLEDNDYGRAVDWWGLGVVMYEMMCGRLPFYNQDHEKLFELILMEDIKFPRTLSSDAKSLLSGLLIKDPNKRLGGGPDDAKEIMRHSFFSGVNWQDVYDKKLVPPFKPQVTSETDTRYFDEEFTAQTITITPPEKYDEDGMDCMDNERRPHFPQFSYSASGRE

Chain of Akt2 (PKB beta) (human (printed as '(h)'), UniProt P31751 1-481, limits assumed) (P31751 whole entry): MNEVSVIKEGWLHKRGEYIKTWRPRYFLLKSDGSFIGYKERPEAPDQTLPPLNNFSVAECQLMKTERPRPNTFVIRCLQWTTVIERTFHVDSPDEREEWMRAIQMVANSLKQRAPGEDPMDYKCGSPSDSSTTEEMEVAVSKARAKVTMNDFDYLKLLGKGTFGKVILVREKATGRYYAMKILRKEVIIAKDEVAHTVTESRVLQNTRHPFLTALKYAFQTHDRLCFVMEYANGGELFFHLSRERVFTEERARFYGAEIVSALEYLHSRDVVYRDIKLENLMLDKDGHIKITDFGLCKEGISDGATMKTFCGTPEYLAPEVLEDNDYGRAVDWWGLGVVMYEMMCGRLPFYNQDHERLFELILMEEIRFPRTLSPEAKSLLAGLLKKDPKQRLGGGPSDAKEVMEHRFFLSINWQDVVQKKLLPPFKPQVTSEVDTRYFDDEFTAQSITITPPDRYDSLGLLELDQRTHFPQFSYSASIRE

Binder	Inhibitory Activity (%), cell-free in vitro kinase assay, peptide 50 µM (Akt2 (PKB beta))	Inhibitory Activity (%), cell-free in vitro kinase assay, peptide 50 µM (c-Src (h))	Inhibitory Activity (%), cell-free in vitro kinase assay, peptide 50 µM (Akt3 (PKB gamma))
RAKAKAAAAR [RAKAKAAAAR peptide]	0%	27%	52%
RAAKAARAAK [RAAKAARAAK peptide]	0%	3%	2%
RVKVKVVVVR [RVKVKVVVVR peptide]	89%	43%	93%
RSKAKNPLYR [RSKAKNPLYR peptide (β6 integrin derived)]	3%	53%	8%
